Results as given in patent publication US12252534 (Scripps Research, dated 2025).

Legend:
[1] = target: T1, cynomolgus CD3 on cynomolgus T cells (HSC-F) (cynomolgus monkey, UniProt Q95LI5 22-198; Q95LI8 22-171; Q95LI7 23-181); test: flow cytometry on HSC-F (cyCD3+) cells, detected with PE-conjugated anti-human kappa secondary antibody; control is the secondary antibody alone
T1 construct: whole, on cells; also called cyCD3+; cell surface CD3 on cynomolgus (HSC-F) T cells
Description: (§1) Flow cytometry was used to test binding of conjugates to cell surface CD3 on human (Jurkat) and cynomolgus (HSC-F) T cells or PSMA on C4-2 cells.

[2] = target: T2, human CD3 on human T cells (Jurkat) (human, UniProt P07766 23-207; P04234 22-171; P09693 23-182); test: flow cytometry on Jurkat (huCD3+) cells, detected with PE-conjugated anti-human kappa secondary antibody; control is the secondary antibody alone
T2 construct: whole, on cells; also called huCD3+; cell surface CD3 on human (Jurkat) T cells
Description: as §1

[3] = target: T3, recombinant cynomolgus monkey CD3 delta/epsilon complex (cy.CD3 d/e-Fc) (cynomolgus monkey, UniProt Q95LI8 22-105; Q95LI5 22-117); test: Octet (BLI), cy.CD3 d/e-Fc captured on Fc sensor, conjugate as analyte; unit inferred, M implied
T3 construct: also called cynoCD3; not shown: Fc portion
Protocol: (§2) Analytes were serially diluted 1.2× from 6 μg/mL to 1 μg/mL in the 1×PBS. 100 mM glycine (pH 2.87) regeneration solution, and 1×PBS for baseline stabilization was also prepared. Biosensor, ligand and analytes pair is following: (1) CH-1-antibodies-recombinant human or cynomolgus monkey CD3 delta/epsilon complex, (2) Fc-recombinant human or cynomolgus monkey CD3 delta/epsilon complex-antibodies (3) CH-1-antibodies-recombinant human or cynomolgus monkey PSMA; and (4) Ni-NTA-recombinant human or cynomolgus monkey PSMA-antibodies. Prior to the binding measurements, the sensor tips were pre-hydrated in 1×PBS for 30 min, followed by 1 cycles of pre-conditioning with 60-sec dips in glycine (pH 2.87). The sensor tips were then transferred to the ligand-containing wells for a 180-sec loading step. After a 120-sec baseline dip in 1×PBS, the binding kinetics were measured by dipping the ligand-coated sensors into the wells containing corresponding analyte at varying concentrations. The binding interactions were monitored over a 180-sec association period and followed by a 7.5 to 15-min dissociation period in new wells containing fresh 1×PBS.

[4] = target: T4, recombinant human CD3 delta/epsilon complex (hu.CD3 d/e-Fc) (human, UniProt P04234 22-105; P07766 23-126); test: Octet (BLI), conjugate captured on CH1 sensor, hu.CD3 d/e-Fc as analyte; unit inferred, M implied
T4 construct: not shown: Fc portion
Protocol: as §2

[5] = target: T4, recombinant human CD3 delta/epsilon …; test: Octet (BLI), hu.CD3de-Fc captured on Fc sensor, conjugate as analyte; unit inferred, M implied
Protocol: as §2

[6] = target: T3, recombinant cynomolgus monkey CD3 …; test: Octet (BLI), conjugate captured on CH1 sensor, cy.CD3 d/e-Fc as analyte; unit inferred, M implied
Protocol: as §2

T3 sequence (Q95LI8 22-105, stated change not applied, chain 1 of 2): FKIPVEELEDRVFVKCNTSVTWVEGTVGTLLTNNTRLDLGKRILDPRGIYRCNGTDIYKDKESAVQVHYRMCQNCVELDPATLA
T3 sequence (Q95LI5 22-117, stated change not applied, chain 2 of 2): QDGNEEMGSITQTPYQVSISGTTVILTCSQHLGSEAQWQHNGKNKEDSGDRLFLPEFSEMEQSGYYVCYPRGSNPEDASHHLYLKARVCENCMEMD
T4 sequence (P04234 22-105, stated change not applied, chain 1 of 2): as the sequence (Q95LI8 22-105, stated change not applied, chain 1 of 2) above, with V5I, K15N, V20I, T32S, N33D, N34I, A64T, N74S, L83V counted along it
T4 sequence (P07766 23-126, stated change not applied, chain 2 of 2): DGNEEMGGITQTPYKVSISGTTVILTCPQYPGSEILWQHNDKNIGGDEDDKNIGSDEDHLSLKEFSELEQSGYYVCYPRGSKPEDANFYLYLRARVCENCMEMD
T2 sequence (P07766 23-207, chain 1 of 3): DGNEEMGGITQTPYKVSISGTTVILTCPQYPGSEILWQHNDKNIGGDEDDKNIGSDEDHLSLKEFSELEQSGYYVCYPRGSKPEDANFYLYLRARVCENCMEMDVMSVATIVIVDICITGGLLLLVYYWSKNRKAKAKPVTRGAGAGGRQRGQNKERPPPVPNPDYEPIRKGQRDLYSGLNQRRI
T2 sequence (P04234 22-171, chain 2 of 3): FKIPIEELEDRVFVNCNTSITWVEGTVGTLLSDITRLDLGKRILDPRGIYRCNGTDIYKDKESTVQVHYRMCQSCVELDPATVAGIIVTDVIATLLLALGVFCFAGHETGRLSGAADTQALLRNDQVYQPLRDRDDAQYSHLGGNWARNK
T2 sequence (P09693 23-182, chain 3 of 3): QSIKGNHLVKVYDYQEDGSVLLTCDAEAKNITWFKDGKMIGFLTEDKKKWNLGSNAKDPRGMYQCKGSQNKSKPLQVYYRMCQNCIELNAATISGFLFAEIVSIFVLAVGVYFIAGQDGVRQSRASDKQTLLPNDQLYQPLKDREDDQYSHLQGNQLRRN
T1 sequence (Q95LI5 22-198, chain 1 of 3): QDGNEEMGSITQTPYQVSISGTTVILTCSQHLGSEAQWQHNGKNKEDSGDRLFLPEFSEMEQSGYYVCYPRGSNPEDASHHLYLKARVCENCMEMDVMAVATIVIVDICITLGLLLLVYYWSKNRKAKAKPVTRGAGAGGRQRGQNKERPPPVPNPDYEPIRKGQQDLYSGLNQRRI
T1 sequence (Q95LI8 22-171, chain 2 of 3): as the sequence (P04234 22-171, chain 2 of 3) above, with I5V, N15K, I20V, S32T, D33N, I34N, T64A, S74N, V83L, H141R counted along it
T1 sequence (Q95LI7 23-181, chain 3 of 3): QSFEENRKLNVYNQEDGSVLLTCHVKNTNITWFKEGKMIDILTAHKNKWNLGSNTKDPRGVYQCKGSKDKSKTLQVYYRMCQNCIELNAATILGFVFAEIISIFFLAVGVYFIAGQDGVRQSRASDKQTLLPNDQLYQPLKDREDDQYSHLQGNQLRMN

B1: UCHT-1 (SEQ ID NOS: 84, 85) anti-CD3 Fab (Fab, V domains shown)
VH: EVQLVESGGGLVQPGGSLRLSCAASGYSFTGYTMNWVRQAPGKGLEWVALINPYKGVSTYNQKFKDRFTISVDKSKNTAYLQMNSLRAEDTAVYYCARSGYYGDSDWYFDVWGQGTLVTVSS
VL: DIQMTQSPSSLSASVGDRVTITCRASQDIRNYLNWYQQKPGKAPKLLIYYTSRLESGVPSRFSGSGSGTDYTLTISSLQPEDFATYYCQQGNTLPWTFGQGTKVEIKR
notes: The unconjugated UCHT-1 that was tested may carry pAcF residues; also called clone UCHT-1
[1]
  binding result: no binding
[2]
  binding result: binds

B2: huL5H2_DI-1×DUPA (SEQ ID NOS: 39, 44) (Fab, V domains shown)
VH: EVQLVESGGGLVQPGGSLRLSCAASGFTFNTYAMNWVRQAPGKGLEWVARIRSKYNNYATYYADSVKDRFTISRDDSKNTLYLQMNSLRAEDTAVYYCVRHGNFGNSYVSWFAYWGQGTLVTVSS
VL: QAVVTQEPSLTVSPGGTVTLTCRSSTGAVTTSNYANWVQQKPDHLFRGLIGGTNKRAPGTPARFSGSLLGDKAALTISGAQPEDEAEYYCALWYSNLWVFGGGTKLTVLK
modifications: pAcF at position 141 conjugated by oxime to a DUPA-linker
notes: De-immunized Fab with a single DUPA on the heavy chain; also called L5H2-DI-1X-DUPA; L5H2_DI-1xDUPA
[3]
  Kd: 11.3 nM
[4]
  Kd: 4.83 nM
[5]
  Kd: 21.2 nM
[6]
  Kd: 3.29 nM
